Reference: publication PMC12095048

Target: USP7 (UniProt Q93009)
Experiment: co-IP of Flag-HIF-1α, USP7 blot
Conditions: reference: wild type Flag-HIF-1α; sites T645

**Q.** How did the “binding against the reference” value turn out when “HIF-1α (from UniProt Q16665) Flag-HIF-1α T645A” was run?
**A.** weaker
